# Biological target: PD-L1 (UniProt Q9EP73)
# Chain of UniProt Q9EP73 (Q9EP73 19-290): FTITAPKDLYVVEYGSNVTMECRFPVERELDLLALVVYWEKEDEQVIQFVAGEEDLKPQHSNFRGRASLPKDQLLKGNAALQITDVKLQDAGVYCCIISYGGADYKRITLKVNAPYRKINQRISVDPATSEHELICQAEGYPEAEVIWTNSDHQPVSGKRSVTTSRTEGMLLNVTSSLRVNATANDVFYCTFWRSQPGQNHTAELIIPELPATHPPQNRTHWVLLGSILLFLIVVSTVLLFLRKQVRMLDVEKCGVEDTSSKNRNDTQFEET
substance,measurement,value
"programmed cell death-1 (PD1), mouse, overexpressed in 293 T cells (from UniProt Q02242 25-288) (receptor)","uptake by K7M2 cells of BI@PCM NPs (PD1-high membrane) compared to B@CM NPs (PD1-low membrane), flow cytometry, 4 h",2.1 fold

# Source: publication PMC12448032
